These results are taken from article PMC5727187, “Insights into the structure and assembly of a bacterial cellulose secretion system” (Nature Communications, 2017).

Data set [1] deals with the molecule itself. The data set can be described thus: negative-stain electron microscopy; Inner membrane subcomplex purified from BL21 (DE3) expressing bcs^HisRQA^HA-FLAGB-pCDF-Duet; reconstruction at 21.1 Å.
Data set [2] deals with the molecule itself. Put plainly: negative-stain electron microscopy; Bcs macrocomplex purified from E. coli 1094 bcsA^HA-FLAG 2K7, GraFix cross-linked in the gradient; non-symmetrized reconstruction at 16.7 Å.

B1: BcsB (recombinant, BL21) (natural protein, E. coli 1094, UniProt P37652 26-779, looked up)
chain: TPATQPLINAEPAVAAQTEQNPQVGQVMPGVQGADAPVVAQNGPSRDVKLTFAQIAPPPGSMVLRGINPNGSIEFGMRSDEVVTKAMLNLEYTPSPSLLPVQSQLKVYLNDELMGVLPVTKEQLGKKTLAQMPINPLFISDFNRVRLEFVGHYQDVCEKPASTTLWLDVGRSSGLDLTYQTLNVKNDLSHFPVPFFDPSDNRTNTLPMVFAGAPDVGLQQASAIVASWFGSRSGWRGQNFPVLYNQLPDRNAIVFATNDKRPDFLRDHPAVKAPVIEMINHPQNPYVKLLVVFGRDDKDLLQAAKGIAQGNILFRGESVVVNEVKPLLPRKPYDAPNWVRTDRPVTFGELKTYEEQLQSSGLEPAAINVSLNLPPDLYLMRSTGIDMDINYRYTMPPVKDSSRMDISLNNQFLQSFNLSSKQEANRLLLRIPVLQGLLDGKTDVSIPALKLGATNQLRFDFEYMNPMPGGSVDNCITFQPVQNHVVIGDDSTIDFSKYYHFIPMPDLRAFANAGFPFSRMADLSQTITVMPKAPNEAQMETLLNTVGFIGAQTGFPAINLTVTDDGSTIQGKDADIMIIGGIPDKLKDDKQIDLLVQATESWVKTPMRQTPFPGIVPDESDRAAETRSTLTSSGAMAAVIGFQSPYNDQRSVIALLADSPRGYEMLNDAVNDSGKRATMFGSVAVIRESGINSLRVGDVYYVGHLPWFERVWYALANHPILLAVLAAISVILLAWVLWRLLRIISRRRLNPDNE
notes: BcsB, amplified from genomic DNA of E. coli 1094 bcsA^HA-FLAG; source: E. coli BL21 (DE3), bcs^HisRQA^HA-FLAGB-pCDF-Duet, co-expressed, detergent-solubilised membranes; purified complex for EM
On to B1, for which the stoichiometry N – broadly, the number of molecules, sites or subunits per partner or assembly – in data set [1] came out at 6.

B2: BcsB (natural protein, E. coli 1094, UniProt P37652 26-779, looked up)
chain: TPATQPLINAEPAVAAQTEQNPQVGQVMPGVQGADAPVVAQNGPSRDVKLTFAQIAPPPGSMVLRGINPNGSIEFGMRSDEVVTKAMLNLEYTPSPSLLPVQSQLKVYLNDELMGVLPVTKEQLGKKTLAQMPINPLFISDFNRVRLEFVGHYQDVCEKPASTTLWLDVGRSSGLDLTYQTLNVKNDLSHFPVPFFDPSDNRTNTLPMVFAGAPDVGLQQASAIVASWFGSRSGWRGQNFPVLYNQLPDRNAIVFATNDKRPDFLRDHPAVKAPVIEMINHPQNPYVKLLVVFGRDDKDLLQAAKGIAQGNILFRGESVVVNEVKPLLPRKPYDAPNWVRTDRPVTFGELKTYEEQLQSSGLEPAAINVSLNLPPDLYLMRSTGIDMDINYRYTMPPVKDSSRMDISLNNQFLQSFNLSSKQEANRLLLRIPVLQGLLDGKTDVSIPALKLGATNQLRFDFEYMNPMPGGSVDNCITFQPVQNHVVIGDDSTIDFSKYYHFIPMPDLRAFANAGFPFSRMADLSQTITVMPKAPNEAQMETLLNTVGFIGAQTGFPAINLTVTDDGSTIQGKDADIMIIGGIPDKLKDDKQIDLLVQATESWVKTPMRQTPFPGIVPDESDRAAETRSTLTSSGAMAAVIGFQSPYNDQRSVIALLADSPRGYEMLNDAVNDSGKRATMFGSVAVIRESGINSLRVGDVYYVGHLPWFERVWYALANHPILLAVLAAISVILLAWVLWRLLRIISRRRLNPDNE
notes: BcsB, E. coli strain 1094, untagged; source: E. coli 1094 bcsA^HA-FLAG 2K7 strain (bcs operons overexpressed from the chromosome), solubilised membranes; purified complex for EM
With B2, the “stoichiometry N” value in data set [2] came to 6.
